What is called Kd is the constant that tells how readily two partners part at equilibrium.

Among the data in paper PMC2581521 (2008) are Kd values, retold here.

This test has as its target T1, Chordin (Xenopus laevis, UniProt Q91713).
T1 chain: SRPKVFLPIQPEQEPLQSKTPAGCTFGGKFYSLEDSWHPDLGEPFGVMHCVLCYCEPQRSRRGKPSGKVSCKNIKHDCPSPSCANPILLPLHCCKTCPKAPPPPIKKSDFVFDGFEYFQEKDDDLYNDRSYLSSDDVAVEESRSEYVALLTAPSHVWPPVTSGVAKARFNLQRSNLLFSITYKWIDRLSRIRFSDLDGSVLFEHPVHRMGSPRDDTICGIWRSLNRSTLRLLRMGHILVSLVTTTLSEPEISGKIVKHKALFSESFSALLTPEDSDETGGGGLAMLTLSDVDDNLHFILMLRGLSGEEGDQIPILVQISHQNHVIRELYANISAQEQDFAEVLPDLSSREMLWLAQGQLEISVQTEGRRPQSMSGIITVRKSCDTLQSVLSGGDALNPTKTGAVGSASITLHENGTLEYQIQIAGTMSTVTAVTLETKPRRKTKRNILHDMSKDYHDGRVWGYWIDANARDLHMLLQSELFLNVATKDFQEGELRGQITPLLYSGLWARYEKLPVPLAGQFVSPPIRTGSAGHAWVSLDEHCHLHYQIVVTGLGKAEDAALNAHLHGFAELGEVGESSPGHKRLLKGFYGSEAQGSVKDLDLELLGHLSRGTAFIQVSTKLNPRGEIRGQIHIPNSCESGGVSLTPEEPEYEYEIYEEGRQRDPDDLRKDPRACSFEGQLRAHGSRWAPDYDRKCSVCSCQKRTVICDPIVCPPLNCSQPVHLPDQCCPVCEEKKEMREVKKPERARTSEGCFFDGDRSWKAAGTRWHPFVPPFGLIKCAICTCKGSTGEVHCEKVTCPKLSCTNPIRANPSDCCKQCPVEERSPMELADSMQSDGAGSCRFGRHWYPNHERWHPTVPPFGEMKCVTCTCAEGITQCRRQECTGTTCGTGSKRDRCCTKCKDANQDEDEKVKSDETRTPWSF
The test can be described thus: SPR. A general note: SPR reads the build-up and loss of mass on a sensor chip optically.

B1: Crossveinless-2 (protein)
chain: not shown
B1 yielded a Kd of 1.37 nM.
